Bridges are numbered along the chain shown (N, C = ends). Primed or numbered codes have the meaning given here. [ ]: non-standard residue; d: D form. 8x polyethylene glycol‑amino = O-(8x polyethylene glycol-amino)-tyrosine, SITE 45; 9x polyethylene glycol‑azido = O-(9x polyethylene glycol-azido)-tyrosine, SITE 42; Ygp(4) = Tyr with amino-capped PEG8 (O-(8x polyethylene glycol-amino)-tyrosine); Yn3(4) = Tyr with azide-capped PEG9 (O-(9x polyethylene glycol-azido)-tyrosine); Ygp = O-(8x polyethylene glycol-amino)-tyrosine (Tyr, amino-capped PEG8); Yn3 = O-(9x polyethylene glycol-azido)-tyrosine (Tyr, azide-capped PEG9); Ygp″ = O-(8x polyethylene glycol-amino)-tyrosine; Yn3″ = O-(9x polyethylene glycol-azido)-tyrosine; Ygp(6) = Tyr, amino-capped PEG8; Yn3(6) = Tyr, azide-capped PEG9; PEG4′ = 4x polyethylene glycol; hSer = N[C@@H](CCO)C(=O)O; Nle = CCCC[C@H](N)C(=O)O
T1: IL-2Rβγ on HEK-Blue IL-2Rβγ reporter cells (InvivoGen) (UniProt P14784 27-551; P31785 23-369, limits assumed)
T1 sequence (looked up) 1: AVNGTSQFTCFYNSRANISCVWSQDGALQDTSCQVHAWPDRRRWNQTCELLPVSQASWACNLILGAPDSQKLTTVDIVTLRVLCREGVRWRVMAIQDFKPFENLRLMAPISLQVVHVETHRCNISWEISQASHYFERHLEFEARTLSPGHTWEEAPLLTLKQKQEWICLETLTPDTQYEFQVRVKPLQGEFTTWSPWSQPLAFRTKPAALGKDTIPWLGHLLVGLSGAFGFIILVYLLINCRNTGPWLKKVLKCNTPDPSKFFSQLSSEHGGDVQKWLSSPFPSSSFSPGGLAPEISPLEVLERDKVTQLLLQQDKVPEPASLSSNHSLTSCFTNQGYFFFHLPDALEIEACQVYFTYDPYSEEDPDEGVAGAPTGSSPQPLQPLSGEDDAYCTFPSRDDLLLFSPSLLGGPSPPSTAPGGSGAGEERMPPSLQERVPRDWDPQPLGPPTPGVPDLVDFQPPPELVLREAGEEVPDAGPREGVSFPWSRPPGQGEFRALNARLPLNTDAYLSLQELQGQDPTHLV
T1 sequence (looked up) 2: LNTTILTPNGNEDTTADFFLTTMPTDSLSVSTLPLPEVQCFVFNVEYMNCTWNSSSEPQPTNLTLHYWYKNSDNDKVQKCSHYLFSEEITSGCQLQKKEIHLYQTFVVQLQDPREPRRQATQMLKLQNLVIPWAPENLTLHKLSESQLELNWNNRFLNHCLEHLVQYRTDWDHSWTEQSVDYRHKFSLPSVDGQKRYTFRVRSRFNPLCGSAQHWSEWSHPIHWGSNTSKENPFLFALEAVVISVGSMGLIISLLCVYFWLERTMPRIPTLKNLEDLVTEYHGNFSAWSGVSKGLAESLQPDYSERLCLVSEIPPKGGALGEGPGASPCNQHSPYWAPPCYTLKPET


Target: T1, IL-2Rβγ on HEK-Blue IL-2Rβγ reporter …
Test: cell-based or functional assay

| Average EC50, HEK-Blue IL-2R (CD122+, CD132+) Reporter Assay, intact molecule [nM] | Average EC50, HEK-Blue IL-2R (CD122+, CD132+) Reporter Assay, MMP2 cleaved molecule [nM] | Binder |
| --- | --- | --- |
| 1.7 | – | CMP-329 (ligand, bridge 9-23; not fully specified (bridges); ends not checked) APTSSSTKKTQLQLEHLLLDLQEILNGINNYKNPKLTR[Nle]L[hSer][Yn3″]KF[Ygp″][Nle]PKKATELKHLQCLEEELKPLEEVL[hSer]LAQSKNFHLRPRDLISNINVIVLELKGSETTF[hSer]CEYADETATIVEFLNRWITFSQSIISTLT |
| – | 0.558 | CMP-330, MMP2 cleaved (ligand, not fully specified; also: before the cut Lys9 and Glu23 side chains are bridged by a peptide linker, what remains after the cut not given here) APTSSSTKKTQLQLEHLLLDLQEILNGINNYKNPKLTR[Nle]L[hSer]Y(9x polyethylene glycol‑azido)KFY(8x polyethylene glycol‑amino)[Nle]PKKATELKHLQCLEEELKPLEEVL[hSer]LAQSKNFHLRPRDLISNINVIVLELKGSETTF[hSer]CEYADETATIVEFLNRWITFSQSIISTLT |
| – | 0.0218 | CMP-303, MMP2 cleaved (ligand, ends and bridges not checked; also: MMP2 cleaved, ring opened, cut site and remnants not given here) PLGLAGAPTSSSTKKTQLQLEHLLLDLQEILNGINNYKNPKLTR[Nle]L[hSer][Yn3″]KF[Ygp″][Nle]PKKATELKHLQCLEEELKPLEEVL[hSer]LAQSKNFHLRPRDLISNINVIVLELKGSETTF[hSer]CEYADETATIVEFLNRWITFSQSIISTLT |
| – | 0.0963 | CMP-316, MMP2 cleaved (ligand, ends and bridges not checked; also: further groups not given here, tested after MMP2 cleavage, remaining product not given here) APTSSSTKKTQLQLEHLLLDLQKILNGINNYKNPKLTR[Nle]L[hSer][Yn3]KF[Ygp][Nle]PKKATELKHLQCLEEELKPLEEVL[hSer]LAQSKNFHLRPRDLISNINVIVLELKGSETTF[hSer]CEYADETATIVEFLNRWITFSQSIISTLT |
| 3.37 | – | CMP-318 (ligand, lactam N-32; ends not checked) SGRVANLVGAPTSSSTKKTQLQLEHLLLDLQEILNGINNYKNPKLTR[Nle]L[hSer][Yn3]KF[Ygp][Nle]PKKATELKHLQCLEEELKPLEEVL[hSer]LAQSKNFHLRPRDLISNINVIVLELKGSETTF[hSer]CEYADETATIVEFLNRWITFSQSIISTLT |
| 0.775 | – | CMP-320 (ligand, lactam N-34) SGRVAPQPLVDAPTSSSTKKTQLQLEHLLLDLQEILNGINNYKNPKLTR[Nle]L[hSer][Yn3(6)]KF[Ygp(6)][Nle]PKKATELKHLQCLEEELKPLEEVL[hSer]LAQSKNFHLRPRDLISNINVIVLELKGSETTF[hSer]CEYADETATIVEFLNRWITFSQSIISTLT |
| 0.34 | – | CMP-304 (ligand, bridge N-29; not fully specified (N-terminus, bridges); ends not checked) PLGLAGAPTSSSTKKTQLQLEHLLLDLQEILNGINNYKNPKLTR[Nle]L[hSer][Yn3(4)]KF[Ygp(4)][Nle]PKKATELKHLQCLEEELKPLEEVL[hSer]LAQSKNFHLRPRDLISNINVIVLELKGSETTF[hSer]CEYADETATIVEFLNRWITFSQSIISTLT |
| 0.0968 | – | CMP-316 (ligand, ends and bridges not checked; also: further groups not given here) APTSSSTKKTQLQLEHLLLDLQKILNGINNYKNPKLTR[Nle]L[hSer][Yn3]KF[Ygp][Nle]PKKATELKHLQCLEEELKPLEEVL[hSer]LAQSKNFHLRPRDLISNINVIVLELKGSETTF[hSer]CEYADETATIVEFLNRWITFSQSIISTLT |
| – | 0.0185 | CMP-305, MMP2 cleaved (ligand, ends and bridges not checked; also: Glu15 and Lys23 side chains carried cleaved peptide linker, remnants after MMP2 cut not given here) APTSSSTKKTQLQLEHLLLDLQKILNGINNYKNPKLTR[Nle]L[hSer][Yn3(4)]KF[Ygp(4)][Nle]PKKATELKHLQCLEEELKPLEEVL[hSer]LAQSKNFHLRPRDLISNINVIVLELKGSETTF[hSer]CEYADETATIVEFLNRWITFSQSIISTLT |
| 1.73 | – | CMP-330 (ligand, bridge 9-23; not fully specified (bridges)) APTSSSTKKTQLQLEHLLLDLQEILNGINNYKNPKLTR[Nle]L[hSer]Y(9x polyethylene glycol‑azido)KFY(8x polyethylene glycol‑amino)[Nle]PKKATELKHLQCLEEELKPLEEVL[hSer]LAQSKNFHLRPRDLISNINVIVLELKGSETTF[hSer]CEYADETATIVEFLNRWITFSQSIISTLT |
| – | 0.021 | CMP-304, MMP2 cleaved (ligand, ends and bridges not checked; also: MMP2 cleaved, ring opened, cut site and remnants not given here) PLGLAGAPTSSSTKKTQLQLEHLLLDLQEILNGINNYKNPKLTR[Nle]L[hSer][Yn3(4)]KF[Ygp(4)][Nle]PKKATELKHLQCLEEELKPLEEVL[hSer]LAQSKNFHLRPRDLISNINVIVLELKGSETTF[hSer]CEYADETATIVEFLNRWITFSQSIISTLT |
| 2.24 | – | CMP-317 (ligand, bridge N-31; not fully specified (bridges); ends not checked) GSGSGSG[PEG4′]APTSSSTKKTQLQLEHLLLDLQEILNGINNYKNPKLTR[Nle]L[hSer][Yn3]KF[Ygp][Nle]PKKATELKHLQCLEEELKPLEEVL[hSer]LAQSKNFHLRPRDLISNINVIVLELKGSETTF[hSer]CEYADETATIVEFLNRWITFSQSIISTLT |
| – | 0.0702 | CMP-329, MMP2 cleaved (ligand, ends and bridges not checked; also: after MMP2 cleavage, remnants of the Lys9–Glu23 peptide linker not given here) APTSSSTKKTQLQLEHLLLDLQEILNGINNYKNPKLTR[Nle]L[hSer][Yn3″]KF[Ygp″][Nle]PKKATELKHLQCLEEELKPLEEVL[hSer]LAQSKNFHLRPRDLISNINVIVLELKGSETTF[hSer]CEYADETATIVEFLNRWITFSQSIISTLT |
| – | 0.0418 | CMP-315, MMP2 cleaved (ligand, ends and bridges not checked; also: MMP2-cleaved, product after cut not given here, further groups not given here) APTSSSTKKTQLQLEHLLLDLQKILNGINNYKNPKLTR[Nle]L[hSer][Yn3(4)]KF[Ygp(4)][Nle]PKKATELKHLQCLEEELKPLEEVL[hSer]LAQSKNFHLRPRDLISNINVIVLELKGSETTF[hSer]CEYADETATIVEFLNRWITFSQSIISTLT |
| 0.497 | – | CMP-305 (ligand, bridge 15-23; not fully specified (bridges); ends not checked) APTSSSTKKTQLQLEHLLLDLQKILNGINNYKNPKLTR[Nle]L[hSer][Yn3(4)]KF[Ygp(4)][Nle]PKKATELKHLQCLEEELKPLEEVL[hSer]LAQSKNFHLRPRDLISNINVIVLELKGSETTF[hSer]CEYADETATIVEFLNRWITFSQSIISTLT |
| 0.0554 | – | CMP-315 (ligand, ends and bridges not checked; also: further groups not given here) APTSSSTKKTQLQLEHLLLDLQKILNGINNYKNPKLTR[Nle]L[hSer][Yn3(4)]KF[Ygp(4)][Nle]PKKATELKHLQCLEEELKPLEEVL[hSer]LAQSKNFHLRPRDLISNINVIVLELKGSETTF[hSer]CEYADETATIVEFLNRWITFSQSIISTLT |

Reference: patent publication US20240376170A1 (BRIGHT PEAK THERAPEUTICS, published 2024)
